Data published in the Human Domainome abundance scans (Beltran et al. 2025).
± gives the uncertainty stated by the source.

Experiment: abundance fitness (aPCA) (normalised: wild type 0, dead -1); higher = more abundant; growth selection in yeast, the domain comes from the species named
Conditions: Homo sapiens

Substance | abundance fitness
Transcriptional activator Myb T148F, P10242 | -0.726 ± 0.046
Transcriptional activator Myb T148G, P10242 | -0.31 ± 0.038
Transcriptional activator Myb T148H, P10242 | -0.556 ± 0.045
Transcriptional activator Myb T148K, P10242 | -0.212 ± 0.057
Transcriptional activator Myb T148L, P10242 | -0.505 ± 0.036
Transcriptional activator Myb T148M, P10242 | -0.462 ± 0.052
Transcriptional activator Myb T148N, P10242 | -0.271 ± 0.043
Transcriptional activator Myb T148P, P10242 | -0.597 ± 0.045
Transcriptional activator Myb T148Q, P10242 | -0.437 ± 0.055
Transcriptional activator Myb T148R, P10242 | -0.307 ± 0.035
Transcriptional activator Myb T148S, P10242 | -0.004 ± 0.034
Transcriptional activator Myb T148W, P10242 | -0.901 ± 0.058
Transcriptional activator Myb T148Y, P10242 | -0.766 ± 0.05
Transcriptional activator Myb T177A, P10242 | -0.137 ± 0.063
Transcriptional activator Myb T177C, P10242 | -0.138 ± 0.075
Transcriptional activator Myb T177D, P10242 | 0.077 ± 0.095
Transcriptional activator Myb T177E, P10242 | -0.013 ± 0.069
Transcriptional activator Myb T177F, P10242 | -0.79 ± 0.18
Transcriptional activator Myb T177G, P10242 | -0.12 ± 0.043
Transcriptional activator Myb T177I, P10242 | -0.477 ± 0.093
Transcriptional activator Myb T177K, P10242 | -0.204 ± 0.092
Transcriptional activator Myb T177L, P10242 | -0.42 ± 0.068

Substance | abundance fitness
Transcriptional activator Myb T177M, P10242 | -0.44 ± 0.093
Transcriptional activator Myb T177N, P10242 | -0.038 ± 0.12
Transcriptional activator Myb T177Q, P10242 | -0.183 ± 0.084
Transcriptional activator Myb T177R, P10242 | -0.267 ± 0.047
Transcriptional activator Myb T177S, P10242 | -0.003 ± 0.066
Transcriptional activator Myb T177V, P10242 | -0.371 ± 0.062
Transcriptional activator Myb T177W, P10242 | -0.533 ± 0.073
Transcriptional activator Myb T177Y, P10242 | -0.558 ± 0.17
Transcriptional activator Myb T188A, P10242 | -0.107 ± 0.046
Transcriptional activator Myb T188C, P10242 | -0.037 ± 0.088
Transcriptional activator Myb T188D, P10242 | -0.015 ± 0.057
Transcriptional activator Myb T188E, P10242 | 0.016 ± 0.056
Transcriptional activator Myb T188F, P10242 | -0.214 ± 0.14
Transcriptional activator Myb T188G, P10242 | -0.058 ± 0.032
Transcriptional activator Myb T188H, P10242 | -0.093 ± 0.1
Transcriptional activator Myb T188I, P10242 | 0.001 ± 0.092
Transcriptional activator Myb T188K, P10242 | -0.115 ± 0.061
Transcriptional activator Myb T188L, P10242 | -0.049 ± 0.053
Transcriptional activator Myb T188M, P10242 | 0.035 ± 0.08
Transcriptional activator Myb T188N, P10242 | -0.204 ± 0.11
Transcriptional activator Myb T188P, P10242 | -0.268 ± 0.099
Transcriptional activator Myb T188Q, P10242 | -0.089 ± 0.078

Substance | abundance fitness
Transcriptional activator Myb T188R, P10242 | -0.166 ± 0.04
Transcriptional activator Myb T188S, P10242 | -0.048 ± 0.053
Transcriptional activator Myb T188V, P10242 | -0.012 ± 0.044
Transcriptional activator Myb T188W, P10242 | -0.093 ± 0.054
Transcriptional activator Myb T188Y, P10242 | 0.034 ± 0.13
Transcriptional activator Myb V193A, P10242 | -0.074 ± 0.069
Transcriptional activator Myb V193C, P10242 | -0.138 ± 0.15
Transcriptional activator Myb V193D, P10242 | -0.166 ± 0.087
Transcriptional activator Myb V193E, P10242 | -0.138 ± 0.079
Transcriptional activator Myb V193F, P10242 | -0.091 ± 0.21
Transcriptional activator Myb V193G, P10242 | -0.041 ± 0.051
Transcriptional activator Myb V193H, P10242 | -0.033 ± 0.13
Transcriptional activator Myb V193I, P10242 | -0.066 ± 0.1
Transcriptional activator Myb V193K, P10242 | -0.154 ± 0.14
Transcriptional activator Myb V193L, P10242 | -0.089 ± 0.089
Transcriptional activator Myb V193N, P10242 | -0.032 ± 0.26
Transcriptional activator Myb V193P, P10242 | -0.198 ± 0.14
Transcriptional activator Myb V193Q, P10242 | -0.14 ± 0.16
Transcriptional activator Myb V193R, P10242 | -0.084 ± 0.059
Transcriptional activator Myb V193S, P10242 | -0.11 ± 0.066
Transcriptional activator Myb V193T, P10242 | -0.018 ± 0.11
Transcriptional activator Myb V193W, P10242 | -0.075 ± 0.068

Substance | abundance fitness
Transcriptional activator Myb V193Y, P10242 | -0.117 ± 0.23
Transcriptional activator Myb W147A, P10242 | -0.681 ± 0.043
Transcriptional activator Myb W147C, P10242 | -0.638 ± 0.042
Transcriptional activator Myb W147D, P10242 | -0.699 ± 0.052
Transcriptional activator Myb W147E, P10242 | -0.563 ± 0.058
Transcriptional activator Myb W147F, P10242 | 0.081 ± 0.038
Transcriptional activator Myb W147G, P10242 | -0.699 ± 0.036
Transcriptional activator Myb W147I, P10242 | -0.406 ± 0.043
Transcriptional activator Myb W147K, P10242 | -0.674 ± 0.06
Transcriptional activator Myb W147L, P10242 | -0.434 ± 0.035
Transcriptional activator Myb W147M, P10242 | -0.274 ± 0.048
Transcriptional activator Myb W147N, P10242 | -0.65 ± 0.042
Transcriptional activator Myb W147P, P10242 | -0.532 ± 0.052
Transcriptional activator Myb W147Q, P10242 | -0.593 ± 0.055
Transcriptional activator Myb W147R, P10242 | -0.824 ± 0.039
Transcriptional activator Myb W147S, P10242 | -0.63 ± 0.036
Transcriptional activator Myb W147T, P10242 | -0.542 ± 0.044
Transcriptional activator Myb W147V, P10242 | -0.65 ± 0.036
Transcriptional activator Myb W147Y, P10242 | -0.22 ± 0.045
Transcriptional activator Myb W166A, P10242 | -0.467 ± 0.097
Transcriptional activator Myb W166C, P10242 | -0.566 ± 0.093
Transcriptional activator Myb W166D, P10242 | -0.687 ± 0.15

Substance | abundance fitness
Transcriptional activator Myb W166F, P10242 | -0.474 ± 0.14
Transcriptional activator Myb W166G, P10242 | -0.543 ± 0.056
Transcriptional activator Myb W166H, P10242 | -0.455 ± 0.17
Transcriptional activator Myb W166I, P10242 | -0.834 ± 0.17
Transcriptional activator Myb W166K, P10242 | -0.786 ± 0.2
Transcriptional activator Myb W166L, P10242 | -0.986 ± 0.14
Transcriptional activator Myb W166M, P10242 | -0.708 ± 0.15
Transcriptional activator Myb W166N, P10242 | -0.349 ± 0.2
Transcriptional activator Myb W166P, P10242 | -0.359 ± 0.15
Transcriptional activator Myb W166Q, P10242 | -0.708 ± 0.1
Transcriptional activator Myb W166R, P10242 | -0.761 ± 0.062
Transcriptional activator Myb W166S, P10242 | -0.615 ± 0.091
Transcriptional activator Myb W166T, P10242 | -0.63 ± 0.11
Transcriptional activator Myb W166V, P10242 | -0.615 ± 0.075
Transcriptional activator Myb W166Y, P10242 | -0.377 ± 0.14
Transcriptional activator Myb W185A, P10242 | -0.736 ± 0.071
Transcriptional activator Myb W185C, P10242 | -0.755 ± 0.12
Transcriptional activator Myb W185D, P10242 | -0.658 ± 0.17
Transcriptional activator Myb W185E, P10242 | -0.614 ± 0.068
Transcriptional activator Myb W185F, P10242 | -0.037 ± 0.075
